The target of the experiment is protein fusion 1, SpyCatcher03 fused to supercharged green fluorescent protein, conjugated with polymer surfactant ([SC3-scGFP][S]). The experiment in a line: SDS-PAGE of covalent (isopeptide) SpyCatcher-SpyTag coupling; 10 uM of each protein mixed in 20 mM Tris-HCl, 700 mM NaCl, pH 7.5, 37 °C, monitored over 24 h, in triplicate; product estimated from the pixel intensity of the bands (GelAnalyzer).

The text below walks through data of article PMC10591475.

Take “protein fusion 3, mCherry fused to SpyTag03 (mCh-ST3)”: the percent of coupling product formed after 15 s is 60% and the yield of coupling product after 24 h was 60%.
In the case of “protein fusion 2, fibronectin-binding protein CshA fused to mCherry with SpyTag03 on the C-terminus (CshA-mCh-ST3)”, the percent of coupling product formed after 15 s was 40% and the yield of coupling product after 24 h is 80%.
